Test results: PMC3355305, “Localized Dimerization and Nucleoid Binding Drive Gradient Formation by the Bacterial Cell Division Inhibitor MipZ” (Molecular Cell, 2012)

Tested on: C. crescentus cells
Assay: FRAP analysis of MipZ-YFP mobility
Format: cell-based, Caulobacter crescentus
Text: Due to their association with chromosomal DNA, MipZ dimers should display slower diffusion rates than monomers. To test this hypothesis, we monitored the mobility of wild-type and mutant MipZ-YFP fusions using fluorescence recovery after photobleaching (FRAP) analysis. […] Concurrent with the reappearance of fluorescence at the bleached pole, the intensity of the unbleached focus decreased, while the total integrated fluorescence remained constant within the cell.
Figure 5 FRAP Analysis of MipZ Diffusion (A and C) FRAP experiments on cells producing a wild-type MipZ-YFP fusion (A) or a MipZ-D42A fusion (C). Cells of strain MT177 (WT) or MT197 (D42A) were shifted from M2GN to M2G medium containing 0.3% xylose and cultivated for another 4 hr to deplete wild-type MipZ and synthesize the indicated fusion protein instead. Single polar MipZ-YFP foci were photo-bleached (white circles), and recovery was followed by fluorescence microscopy (scale bars represent 2 μm). (B, D, and E) Quantification of the recovery rate in cells producing YFP fusions to wild-type MipZ (MT177) (B), MipZ-D42A (MT197) (D), and MipZ-G14V (MT178) (E). FRAP experiments were performed as described in (A). The graphs show the average relative integrated intensities of the bleached region, an unbleached region of equal size at the opposite pole, and the remaining area of the cell plotted as a function of time. The recovery half-times (t1/2), as determined by fitting of the data to single-exponential functions (red lines), are given on top of the graphs. […] (F) Quantification of the recovery rate of MipZ-YFP in cells depleted of ParB. Strain MT148 was grown in M2G medium for 15 hr and analyzed as described in (B), (D), and (E). […] The recovery half-time measured before depletion of ParB was 11.8 s (±1.2 s; n = 34) (data not shown). See also Figure S6. […] It is uncertain whether they count as substance results. / All panels: the lowered sign after t is very small and is read as ½.
Figure S6. Fluorescence-recovery-after-photobleaching analysis of MipZ mobility, Related to Figure 5.
(A) Representative images of FRAP experiments on cells producing mutant MipZ-YFP fusions. Cells of strains DK2 (K13A), MT178 (G14V) and MT179 (K18Q), which express wild-type mipZ under the control of the ammonium-repressible PnrtX promoter and the indicated mipZ-eyfp allele under the control of the xylose-inducible Pxyl promoter, were shifted from M2GN to M2G medium containing 0.3% xylose and cultivated for another 4 h to deplete wild-type MipZ and synthesize the fusion protein instead. Single polar regions were photo-bleached, and recovery was followed by fluorescence microscopy (bars: 2 µm). The bleached regions are highlighted by circles.
(B) Cells of strain MT177 (ΔmipZ PnrtX::mipZ Pxyl::mipZ-eyfp) were grown as described in (A). Chloramphenicol (20 µg/ml) was added to the growing culture 25 min prior to harvest as well as to the agarose pads used for the FRAP experiments. Fitting of the data to a single exponential equation yielded a recovery half-time of 12.4 s (± 0.5 s).
(C) Cells of strain MT97 (mipZ-eyfp) were grown in M2G medium and subjected to FRAP analysis. The fitted curve corresponds to a recovery half-time of 12.0 s (± 1.2 s).
(D and E) Cells of strains (D) DK2 (ΔmipZ PnrtX::mipZ Pxyl::mipZK13A-eyfp) and (E) MT179 (ΔmipZ PnrtX::mipZ Pxyl::mipZK18Q-eyfp) were grown as described in (A) and subjected to FRAP analysis. […]

B1: MipZ: P loop ATPase and cell division inhibitor of Caulobacter crescentus; hexahistidine-tagged in vitro, YFP fusion in FRAP (protein)
chain: MAETRVIVVGNEKGGAGKSTIAVHLVTALLYGGAKVAVIDLDLRQRTSARFFENRRAWLDNKKIELPEPLALNLSDNDVALAERPEEEQVAGFEAAFARAMAECDFILIDTPGGDSAITRMAHGRADLVVTPMNDSFVDFDMLGTVDPVTLELTKPSLYSLTVWEGRKQRALSGQRQAMDWVVLRNRLATTEARNRKRLEDRLNALAKRVGFRIGPGLRDRVIYRELFPFGLTIADLSPQVRPVPVSLQHLAARQELRALMHSLGLSAYSGETMLAAQ
modifications: left off: His6, end not stated, state not stated
notes: hexahistidine-tagged in vitro, YFP fusion in FRAP
recovery half-time (t1/2) (MipZ-YFP in cells depleted of ParB (strain MT148)): 3.2 s | recovery half-time (t1/2) (YFP fusion, xylose-induced, cells depleted of wild-type MipZ, polar region bleached): 10.7 s | recovery half-time (strain MT97 (mipZ-eyfp), M2G medium, not inducible promoter): 12.0 s | recovery half-time (strain MT148 before depletion of ParB): 11.8 s | recovery half-time (strain MT177, chloramphenicol 20 µg/ml): 12.4 s
